Measured values as given in publication PMC6662825, “The MTR4 helicase recruits nuclear adaptors of the human RNA exosome using distinct arch-interacting motifs” (Nature Communications, 2019).

Columns and labels:
[1] = biological target: T1, GST-MTR4-∆N (human, UniProt P42285 75-1042); test: pull-down; GST-tagged MTR4 constructs as bait, Trx-NVL constructs as prey, glutathione sepharose; 10 μM GST-MTR4∆N with 20 μM Trx-NVL constructs; 50 mM Hepes pH 7.5, 150 mM NaCl, 5% glycerol, 0.05% NP40, 1 mM DTT, 30 min at 4 °C; SDS-PAGE, Coomassie; conditions: both partners purified
T1 construct: Tag is cleavable with 3C protease; kept for the GST pull-downs; also called GST-tagged MTR4∆N; source: E. coli BL21 star (DE3), purified (Ni-NTA, heparin, SEC); not shown: 6xHis-GST, N-terminal, kept
T1 sequence (looked up): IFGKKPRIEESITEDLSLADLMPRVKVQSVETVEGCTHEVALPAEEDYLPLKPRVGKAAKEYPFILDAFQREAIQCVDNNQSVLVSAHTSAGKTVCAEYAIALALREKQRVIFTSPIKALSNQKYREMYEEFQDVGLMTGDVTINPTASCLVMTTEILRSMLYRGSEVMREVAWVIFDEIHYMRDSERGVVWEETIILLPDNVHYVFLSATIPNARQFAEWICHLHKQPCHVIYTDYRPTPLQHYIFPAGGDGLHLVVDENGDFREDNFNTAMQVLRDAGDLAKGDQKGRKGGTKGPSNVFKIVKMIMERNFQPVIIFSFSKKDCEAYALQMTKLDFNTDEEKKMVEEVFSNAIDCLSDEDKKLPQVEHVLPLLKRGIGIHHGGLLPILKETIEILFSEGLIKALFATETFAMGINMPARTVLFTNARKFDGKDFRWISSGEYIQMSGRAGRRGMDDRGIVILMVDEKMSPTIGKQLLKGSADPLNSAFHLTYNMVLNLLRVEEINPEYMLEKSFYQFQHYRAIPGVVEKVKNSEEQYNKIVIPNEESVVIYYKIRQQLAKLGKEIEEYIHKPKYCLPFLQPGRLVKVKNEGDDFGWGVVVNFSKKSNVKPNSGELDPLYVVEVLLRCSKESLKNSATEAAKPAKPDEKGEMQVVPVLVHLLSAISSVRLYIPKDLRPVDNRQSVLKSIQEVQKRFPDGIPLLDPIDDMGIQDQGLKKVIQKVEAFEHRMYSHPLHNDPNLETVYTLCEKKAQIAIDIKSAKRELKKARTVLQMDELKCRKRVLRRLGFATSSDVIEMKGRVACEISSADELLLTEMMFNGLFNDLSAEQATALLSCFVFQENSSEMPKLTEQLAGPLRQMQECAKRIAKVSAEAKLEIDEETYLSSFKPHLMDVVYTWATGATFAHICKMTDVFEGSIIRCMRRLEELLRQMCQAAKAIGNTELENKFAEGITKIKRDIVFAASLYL

[2] = biological target: T2, GST-MTR4-KOW (human, UniProt P42285 645-787); test: as above; conditions: both partners purified
T2 construct: human MTR4 KOW domain, residues 645–787; also called GST-tagged MTR4 KOW; source: E. coli BL21 star (DE3), purified (Ni-NTA, heparin, SEC); not shown: 6xHis-GST, N-terminal, kept
T2 sequence (looked up): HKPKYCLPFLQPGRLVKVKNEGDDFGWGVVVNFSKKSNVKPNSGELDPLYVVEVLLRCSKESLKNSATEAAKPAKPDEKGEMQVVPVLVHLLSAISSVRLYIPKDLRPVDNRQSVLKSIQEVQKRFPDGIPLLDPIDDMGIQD

B1: Trx-NVL^167–216 (domain or fragment, human, UniProt O15381 167-216, looked up)
chain: KDSEGGWFIDKTPSVKKDSFFLDLSCEKSNPKKPITEIQDSKDSSLLESD
notes: source: E. coli BL21 star (DE3), purified (Ni-NTA, SEC); not shown: 6xHis-Trx, N-terminal, kept
binding result [1]: binds
binding result [2]: binds
